Key:
Assay in all cases: split reporter
[1] = molecular target: NRT2.1 wild type, rBiFC fusion (Arabidopsis thaliana, UniProt O82811 1-530)
[2] = molecular target: NRT2.1 S501A, rBiFC fusion (Arabidopsis thaliana, UniProt O82811 1-530, S501A)
[3] = molecular target: NRT2.1 S501D, rBiFC fusion (Arabidopsis thaliana, UniProt O82811 1-530, S501D)
Sequence of NRT2.1 S501D, rBiFC fusion (O82811 whole entry S501D, the tested form may be a part): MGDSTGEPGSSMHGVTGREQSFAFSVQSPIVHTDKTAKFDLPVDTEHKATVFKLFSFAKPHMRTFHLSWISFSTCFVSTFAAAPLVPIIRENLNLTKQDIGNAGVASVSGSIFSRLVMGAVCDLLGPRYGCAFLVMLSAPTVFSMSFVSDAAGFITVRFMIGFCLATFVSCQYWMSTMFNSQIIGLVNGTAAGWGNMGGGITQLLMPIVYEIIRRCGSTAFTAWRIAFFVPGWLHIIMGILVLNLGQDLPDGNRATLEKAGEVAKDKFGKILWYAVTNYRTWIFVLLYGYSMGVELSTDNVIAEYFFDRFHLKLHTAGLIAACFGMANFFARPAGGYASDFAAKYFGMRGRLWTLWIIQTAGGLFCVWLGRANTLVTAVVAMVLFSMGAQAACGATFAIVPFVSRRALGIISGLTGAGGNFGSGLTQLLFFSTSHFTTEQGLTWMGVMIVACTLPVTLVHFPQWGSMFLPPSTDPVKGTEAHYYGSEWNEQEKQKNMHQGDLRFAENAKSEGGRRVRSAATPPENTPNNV

Sequence of NRT2.1 S501A, rBiFC fusion (O82811 whole entry S501A, the tested form may be a part): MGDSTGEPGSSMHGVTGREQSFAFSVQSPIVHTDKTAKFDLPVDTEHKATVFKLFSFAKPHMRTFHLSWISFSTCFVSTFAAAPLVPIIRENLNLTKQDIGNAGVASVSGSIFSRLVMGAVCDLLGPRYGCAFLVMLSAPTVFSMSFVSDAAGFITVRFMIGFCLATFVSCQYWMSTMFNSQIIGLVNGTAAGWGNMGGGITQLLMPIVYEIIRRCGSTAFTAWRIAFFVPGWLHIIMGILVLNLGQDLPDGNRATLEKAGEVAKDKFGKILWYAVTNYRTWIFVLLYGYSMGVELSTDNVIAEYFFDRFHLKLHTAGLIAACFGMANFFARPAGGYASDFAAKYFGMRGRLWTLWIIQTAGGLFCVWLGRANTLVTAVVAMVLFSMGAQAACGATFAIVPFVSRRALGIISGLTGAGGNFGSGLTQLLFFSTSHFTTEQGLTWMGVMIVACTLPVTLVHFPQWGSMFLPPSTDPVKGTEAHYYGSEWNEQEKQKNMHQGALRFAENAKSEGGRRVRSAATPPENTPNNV
Sequence of NRT2.1 wild type, rBiFC fusion (O82811 whole entry, the tested form may be a part): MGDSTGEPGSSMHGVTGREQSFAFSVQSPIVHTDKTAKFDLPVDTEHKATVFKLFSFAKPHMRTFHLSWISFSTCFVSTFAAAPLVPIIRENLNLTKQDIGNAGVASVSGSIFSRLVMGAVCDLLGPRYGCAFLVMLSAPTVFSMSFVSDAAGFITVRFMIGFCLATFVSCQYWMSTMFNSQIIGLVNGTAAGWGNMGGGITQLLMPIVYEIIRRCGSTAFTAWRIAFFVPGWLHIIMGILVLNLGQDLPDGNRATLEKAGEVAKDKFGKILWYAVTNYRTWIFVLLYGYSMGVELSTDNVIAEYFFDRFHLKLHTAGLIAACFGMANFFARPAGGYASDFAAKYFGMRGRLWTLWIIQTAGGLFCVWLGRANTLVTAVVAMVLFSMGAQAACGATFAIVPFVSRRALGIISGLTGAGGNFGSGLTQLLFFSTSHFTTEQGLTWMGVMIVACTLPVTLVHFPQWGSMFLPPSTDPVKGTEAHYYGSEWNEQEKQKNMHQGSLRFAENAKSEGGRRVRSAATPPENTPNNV

- YFP fluorescence as percent of RFP fluorescence (rBiFC) [1]: ~40 % of RFP fluorescence
- YFP fluorescence as percent of RFP fluorescence (rBiFC) [2]: ~50 % of RFP fluorescence
- YFP fluorescence as percent of RFP fluorescence (rBiFC) [3]: ~50 % of RFP fluorescence
B1: NAR2.1, rBiFC fusion (natural protein, Arabidopsis thaliana, UniProt Q9FGS5 23-210, looked up)
chain: AEKVRLFKELDKGALDVTTKPSREGPGVVLDAGKDTLNITWTLSSIGSKREAEFKIIKVKLCYAPPSQVDRPWRKTHDELFKDKTCPHKIIAKPYDKTLQSTTWTLERDIPTGTYFVRAYAVDAIGHEVAYGQSTDDAKKTNLFSVQAISGRHASLDIASICFSVFSVVALVVFFVNEKRKAKIEQSK

— doi:10.1101/583542 (bioRxiv, 2019)
